Test results reported in US7264932B2, “Nuclease inhibitor cocktail” (Applera Corporation, priority 1999, dated 2007).

T1: bovine RNase A (Bos taurus, UniProt P61823)
T1 sequence (P61823 27-150): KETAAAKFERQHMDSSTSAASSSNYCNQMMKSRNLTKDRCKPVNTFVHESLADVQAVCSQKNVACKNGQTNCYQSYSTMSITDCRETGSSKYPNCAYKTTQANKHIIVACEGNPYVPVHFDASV

B1: PK: proteinase K, protease that digests RNase proteins to peptide fragments (protein, UniProt P06873 106-384, looked up)
Proteinase K: AAQTNAPWGLARISSTSPGTSTYYYDESAGQGSCVYVIDTGIEASHPEFEGRAQMVKTYYYSSRDGNGHGTHCAGTVGSRTYGVAKKTQLFGVKVLDDNGSGQYSTIIAGMDFVASDKNNRNCPKGVVASLSLGGGYSSSVNSAAARLQSSGVMVAVAAGNNNADARNYSPASEPSVCTVGASDRYDRRSSFSNYGSVLDIFGPGTSILSTWIGGSTRSISGTSMATPHVAGLAAYLMTLGKTTAASACRYIADTANKGDLSNIPFGTVNLLAYNNYQA
B2: RIP: human placental RNase Inhibitor Protein (protein, UniProt P13489 2-461, looked up)
Ribonuclease inhibitor: SLDIQSLDIQCEELSDARWAELLPLLQQCQVVRLDDCGLTEARCKDISSALRVNPALAELNLRSNELGDVGVHCVLQGLQTPSCKIQKLSLQNCCLTGAGCGVLSSTLRTLPTLQELHLSDNLLGDAGLQLLCEGLLDPQCRLEKLQLEYCSLSAASCEPLASVLRAKPDFKELTVSNNDINEAGVRVLCQGLKDSPCQLEALKLESCGVTSDNCRDLCGIVASKASLRELALGSNKLGDVGMAELCPGLLHPSSRLRTLWIWECGITAKGCGDLCRVLRAKESLKELSLAGNELGDEGARLLCETLLEPGCQLESLWVKSCSFTAACCSHFSSVLAQNRFLLELQISNNRLEDAGVRELCQGLGQPGSVLRVLWLADCDVSDSSCSSLAATLLANHSLRELDLSNNCLGDAGILQLVESVRQPGCLLEQLVLYDIYWSEEMEDRLQALEKDKPSLRVIS

How the values were obtained:
[1] = test system: total RNase activity in murine kidney plus pancreatic lysate; experiment: Proteinase K inactivation of total RNase activity in kidney lysate with pancreatic lysate; type: biochemical; details: 600 ng/uL PK
Protocol: Murine kidney (40 ul of 0.1 mg/ul) was introduced into a 50 uL reaction with a dilute pancreatic lysate (1 or 10 ul of pancreas at 0.1 mg/ul) prepared in 24 mM Hepes, pH 7.2, 50 mM NaCl, 1 MM MgCl2. All samples were digested at 50C for 5 min in PK buffer at 23C. […] Although proteinase K is a protein-based inhibitor, RNase inactivation occurs by a very different mechanism than a protein inhibitor such as RIP, since proteinase K digests RNase proteins to peptide fragments, thereby destroying the folded (active) conformation of the enzyme.

[2] = test system: total RNase activity in lung lysate; experiment: RNaseAlert fluorescent assay, lung lysate; type: biochemical, mouse; details: 0.5 U/ul RIP
Protocol: (§1) Flash-frozen mouse tissues (5 mg) were dounced in 50 ul of 24 mM Hepes, pH 7.2, 50 mM NaCl, 1 mM MgCl2. RNase activity was measured using Ambion's fluorescent RNaseAlert™ assay ([…] substrate, 10 ug/ml ultrapure BSA) via BMG POLARstar Optima Fluorometer according to the manufacturer's protocol. In addition to measuring total RNase activity, lysates were treated with Ap5A, heat (90 C for 10 min), or 0.5 U/ul RIP. Tissue lysate dilutions: pancreas 1:16,200; liver 1:17; thymus 1:17; kidney 1:17; spleen 1:810; lung 1:810. The data were normalized to maximum RNase activity observed in tissue lysate with kidney being the tissue with the lowest RNase activity and assigned the arbitrary unit of 1. […] However, RIP is specific to RNase A superfamily enzymes, where Ap5A, as a RNA analogue, is expected to be a more general RNase inhibitor.

[3] = test system: total RNase activity in spleen lysate; experiment: RNaseAlert fluorescent assay, spleen lysate; type: biochemical, mouse; details: 0.5 U/ul RIP
Protocol: as §1

[4] = test system: total RNase activity in pancreas lysate; experiment: RNaseAlert fluorescent assay, pancreas lysate; type: biochemical, mouse; details: Pancreas, 0.5 U/ul RIP
Protocol: as §1
Pancreatic tissue (5 mg) was dounced in 50ul of 24 mM Hepes, pH 7.2, 50 mM NaCl, 1 mM MgCl2. Diluted pancreas lysate (1:12,000) was subjected to a 1/10 volume of negatively charged SP resin. RNase activity of the clarified lysate was measured using. Ambion's fluorescent RNaseAlert™ assay (40 nM substrate, 10 ug/ml ultrapure BSA) via BMG POLARstar Optima, according to the manufacturer's instructions. Resin treatment removed >95% of total RNase activity in diluted pancreas lysate. […]

bovine RNase A = target: T1, bovine RNase A; experiment: Intactness of total RNA (RNA LabChip), bovine RNase A; type: biochemical; details: 0.2u/ul rip, 5 pg/ul bovine rnase a, e. coli total rna, room temperature 4 min
Protocol: A total of 100 pg/ul e. […].
Mouse pancreatic tissue (5 mg) was disrupted in 50 ul of 24 mM Hepes, pH 7.2, 50 mM NaCl, 1 mM MgCl2. The diluted lysate (1:20,000) was pre-incubated with 50 uM Benzopurpurin B (BpB) for 30 sec and then added to 100 ng/ul mouse liver total RNA (Ambion) and incubated at 23 C for an additional 4 min. Samples were quenched in a guanidinium lysis buffer, and the RNA purified via MEGAclear™ MAG-96 and eluted with 20 ul nuclease-free water. […] These experiments were conducted in the same fashion except that 100 uM BpB was employed. The sample (1 ul) was analyzed by 2100 BioAnalyzer software (Agilent) after separation on an RNA LabChip.
Pancreatic tissue (5 mg) was dounced in 50 ul of 24 mM Hepes, pH 7.2, 50 mM NaCl, 1 mM MgCl2. The lysate was diluted (1:20,000) and then pre-incubated with 200 uM of 467929. […] All samples were pre-incubated for 30 sec before being added to 100 ng/ul mouse liver total RNA (Ambion) and incubated at 23C for an additional 4 min. The RNA was then immediately purified via MEGAclear™ MAG-96 and eluted with 20 ul nuclease-free water. The recovered RNA (1 ul) was analyzed by 2100 BioAnalyzer software after separation on an RNA LabChip.

Molecule | Fold Reduction ([1]; 1 uL pancreas) | Slope ([1]; 1 uL pancreas) [RFU/sec] | Fold Reduction ([1]; 10 uL pancreas) | Slope ([1]; 10 uL pancreas) [RFU/sec] | Slope ([1]; No pancreas) [RFU/sec] | % Inhibition [2] [%] | Slope/sec Final (After RIP addition) [2] | % Inhibition [3] [%] | Slope/sec Final (After RIP addition) [3] | % Inhibition [4] [%] | Slope/sec Final (After RIP addition) [4] | protection of total RNA from degradation (bovine RNase A)
B1 | 1283 | 0.0938 | 242 | 0.6074 | 0.0123 |  |  |  |  |  |  | 
B2 |  |  |  |  |  | 99.3 | 0.21 | 98.0 | 1.08 | 99.7 | 0.17 | significant protection
